Laboratory results published in patent US6893829B2, “Human leukocyte 12-lipoxygenase and its role in the pathogenesis of disease states” (City of Hope, priority 1992, dated 2005).

Columns and labels:
[1] = tested on: leukocyte-type 12-LO in MCF-7 cells; assay: 12-LO protein and mRNA expression in MCF-7 cells; conditions: EGF 50 ng/ml, 24 hours
[2] = tested on: VEGF protein in MCF-7 cells; assay: VEGF protein expression in breast cancer cells (immunoblot); format: cell-based, human; conditions: MCF-7, 24 hours
Procedure: FIG. 8 illustrates the dose-dependent effect of platelet-derived growth factor (PDGF) on vascular endothelial growth factor (VEGF) protein (42 kD) expression in MCF-7 breast cancer cells. Nearly confluent MCF-7 cells were serum starved for 24 hours by placing in DME medium+0.4% FCS and 0.2% BSA. This medium was then freshly replaced and the cells incubated for another 24 hours with PDGF. At the end of the incubation, the cell monolayers were washed with ice-cold PBS, scraped into PBS and pelleted by centrifugation. The cell pellets were then lysed and equal amounts of protein (50 μg) subjected to electrophoresis and immunoblotting to detect VEGF using a specific antibody from Santa Cruz Biotechnology. Detection was by a chemiluminiscent technique.
FIG. 9 illustrates the effect of epidermal growth factor (EGF) and the 12-lipoxygenase product 12-HETE on VEGF protein expression in the MCF-7 breast cancer cell line MCF-7. MCF-7 cells were treated with EGF and 12-HETE for 24 hours and VEGF protein identified as described in the legend to FIG. 8.

[3] = tested on: 12-LO activity in MCF-7 cells; assay: 12-HETE formation in MCF-7 cells; conditions: four hours, basal 257±10 pg/10^6 cells

B1: EGF: Epidermal Growth Factor (protein, UniProt P01133 23-1207, looked up)
Pro-epidermal growth factor: PQHWSCPEGTLAGNGNSTCVGPAPFLIFSHGNSIFRIDTEGTNYEQLVVDAGVSVIMDFHYNEKRIYWVDLERQLLQRVFLNGSRQERVCNIEKNVSGMAINWINEEVIWSNQQEGIITVTDMKGNNSHILLSALKYPANVAVDPVERFIFWSSEVAGSLYRADLDGVGVKALLETSEKITAVSLDVLDKRLFWIQYNREGSNSLICSCDYDGGSVHISKHPTQHNLFAMSLFGDRIFYSTWKMKTIWIANKHTGKDMVRINLHSSFVPLGELKVVHPLAQPKAEDDTWEPEQKLCKLRKGNCSSTVCGQDLQSHLCMCAEGYALSRDRKYCEDVNECAFWNHGCTLGCKNTPGSYYCTCPVGFVLLPDGKRCHQLVSCPRNVSECSHDCVLTSEGPLCFCPEGSVLERDGKTCSGCSSPDNGGCSQLCVPLSPVSWECDCFPGYDLQLDEKSCAASGPQPFLLFANSQDIRHMHFDGTDYGTLLSQQMGMVYALDHDPVENKIYFAHTALKWIERANMDGSQRERLIEEGVDVPEGLAVDWIGRRFYWTDRGKSLIGRSDLNGKRSKIITKENISQPRGIAVHPMAKRLFWTDTGINPRIESSSLQGLGRLVIASSDLIWPSGITIDFLTDKLYWCDAKQSVIEMANLDGSKRRRLTQNDVGHPFAVAVFEDYVWFSDWAMPSVMRVNKRTGKDRVRLQGSMLKPSSLVVVHPLAKPGADPCLYQNGGCEHICKKRLGTAWCSCREGFMKASDGKTCLALDGHQLLAGGEVDLKNQVTPLDILSKTRVSEDNITESQHMLVAEIMVSDQDDCAPVGCSMYARCISEGEDATCQCLKGFAGDGKLCSDIDECEMGVPVCPPASSKCINTEGGYVCRCSEGYQGDGIHCLDIDECQLGEHSCGENASCTNTEGGYTCMCAGRLSEPGLICPDSTPPPHLREDDHHYSVRNSDSECPLSHDGYCLHDGVCMYIEALDKYACNCVVGYIGERCQYRDLKWWELRHAGHGQQQKVIVVAVCVVVLVMLLLLSLWGAHYYRTQKLLSKNPKNPYEESSRDVRSRRPADTEDGMSSCPQPWFVVIKEHQDLKNGGQPVAGEDGQAADGSMQPTSWRQEPQLCGMGTEQGCWIPVSSDKGSCPQVMERSFHMPSYGTQTLEGGVEKPHSLLSANPLWQQRALDPPHQMELTQ
modifications: Pro-epidermal growth factor
levels of 12-LO protein (72 kD) and 12-LO mRNA [1]: marked increase | VEGF protein expression [2]: induced | formation of 12-HETE ([3]; serum-starved MCF-7, EGF 50 ng/ml): 462 ± 15 pg | formation of 12-HETE ([3]; serum-starved MCF-7, EGF 100 ng/ml): 593 ± 46 pg
